# Measured values taken from patent US20230348867.
# Tests used:
# Test in all cases: cell_activity
# [1] = tested on: SB100X (Variant 27) K14R,K33A,R115H,R214D,K215A,E216V,N217Q,M243H,T314N (synthetic); settings: human CD34+ HSC, GFP+ CFU-E
# [2] = tested on: SB M3a (Variant 30) K13A,K33A,T83A,R214D,K215A,E216V,N217Q (synthetic); settings: HeLa transposition
# [3] = tested on: SB Variant 1 (2G6/6G2) K14R,R214D,K215A,E216V,N217Q (synthetic); settings: HeLa transposition
# [4] = tested on: SB Variant 12 K14R,T83A,M243Q,T314N (synthetic); settings: HeLa transposition
# [5] = tested on: SB Variant 14 K14R,K30R,R143L,A205K,H207V,K208R,D210E,R214D,K215A,E216V,N217Q,M243H (synthetic); settings: HeLa transposition
# [6] = tested on: SB Variant 15 K14R,K30R,R147E,A205K,H207V,K208R,D210E,R214D,K215A,E216V,N217Q,M243H (synthetic); settings: HeLa transposition
# [7] = tested on: SB Variant 16 K14R,K30R,A205K,H207V,K208R,D210E,R214D,K215A,E216V,N217Q,M243H,E267D (synthetic); settings: HeLa transposition
# [8] = tested on: SB Variant 17 K14R,K30R,A205K,H207V,K208R,D210E,R214D,K215A,E216V,N217Q,M243H,T314N (synthetic); settings: HeLa transposition
# [9] = tested on: SB Variant 18 K14R,K30R,A205K,H207V,K208R,D210E,R214D,K215A,E216V,N217Q,M243H,G317E (synthetic); settings: HeLa transposition
# [10] = tested on: SB Variant 2 (3D5) K33A,R115H,R214D,K215A,E216V,N217Q,M243H (synthetic); settings: HeLa transposition
# [11] = tested on: SB Variant 20 K14R,K30R,R147E,A205K,H207V,K208R,D210E,R214D,K215A,E216V,N217Q,M243H,T314N (synthetic); settings: HeLa transposition
# [12] = tested on: SB Variant 21 K14R,K30R,R143L,A205K,H207V,K208R,D210E,R214D,K215A,E216V,N217Q,M243H,E267D (synthetic); settings: HeLa transposition
# [13] = tested on: SB Variant 23 K14R,K30R,R143L,A205K,H207V,K208R,D210E,R214D,K215A,E216V,N217Q,M243H,G317E (synthetic); settings: HeLa transposition
# [14] = tested on: SB Variant 3 (6A5) K14R,K30R,A205K,H207V,K208R,D210E,R214D,K215A,E216V,N217Q,M243H (synthetic); settings: HeLa transposition
# [15] = tested on: SB Variant 4 K13D,K33A,T83A,H207V,K208R,D210E,M243Q (synthetic); settings: HeLa transposition
# [16] = tested on: SB Variant 5 K13A,K33A,R214D,K215A,E216V,N217Q (synthetic); settings: HeLa transposition
# [17] = tested on: SB Variant 6 K33A,T83A,R214D,K215A,E216V,N217Q,G317E (synthetic); settings: HeLa transposition
# [18] = tested on: SB Variant 7 (12B1) K14R,T83A,M243Q (synthetic); settings: HeLa transposition
# [19] = tested on: SB Variant 8 K14R,T83A,I100L,M243Q (synthetic); settings: HeLa transposition
# [20] = tested on: SB10 Sleeping Beauty transposase (synthetic (reconstructed from fish)); settings: HeLa transposition, G418 colonies, reference
Substance,binding signal [1] [fold vs SB10],binding signal [2] [fold vs SB10],binding signal [3] [fold vs SB10],binding signal [4] [fold vs SB10],binding signal [5] [fold vs SB10],binding signal [6] [fold vs SB10],binding signal [7] [fold vs SB10],binding signal [8] [fold vs SB10],binding signal [9] [fold vs SB10],binding signal [10] [fold vs SB10],binding signal [11] [fold vs SB10],binding signal [12] [fold vs SB10],binding signal [13] [fold vs SB10],binding signal [14] [fold vs SB10],binding signal [15] [fold vs SB10],binding signal [16] [fold vs SB10],binding signal [17] [fold vs SB10],binding signal [18] [fold vs SB10],binding signal [19] [fold vs SB10],binding signal [20] [fold vs SB10]
pT2-HB-CAG-GFP SB transposon,100,,,,,,,,,,,,,,,,,,,
pTNeo (SB inverted repeats flanking NeoR),,10,20,10,40,30,30,25,25,30,40,50,35,30,20,20,20,15,5,1
